This data set concerns the molecule itself. Put plainly: SEC-MALS.

B1: DHR10-mica6-NC (designed binder)
chain: GSGGSSEVLELAIRLIKEVVENAQREGYDISEAAAAAAEAFAAVAEAAKAAGITSSEVLELAIRLIKEVVENAQREGYDISEAAAAAAEAFAAVAEAAKAAGITSSEVLELAIRLIKEVVENAQREGYDISEAAAAAAEAFAAVAEAAKAAGIASSEVLELAIRLIKEVVENAQREGYDISEAAAAAAEAFAAVAEAAKAAGITSSEVLELAIRLIKEVVENAQREGYDISEAAAAAAEAFAAVAEAAKAAGIASSEVLELAIRLIKEVVENAQREGYDISEAAAAAAEAFAAVAEAAKAAGIGWE
On to B1, for which the “stoichiometry N” value is 2.1 times the MW of a monomer.

The values above are taken from article PMC6948101 (Nature, 2019).
